Source: US20230099801A1, “RESTORATION OF T CELL ACTIVITY VIA THE CD39/CD73 AXIS” (INNATE PHARMA, priority 2017, published 2023)
“Also recorded” adds a separate entry of the source.

Columns and labels:
[1] = molecular target: T1, CD39 expressed by Ramos human lymphoma cells (Homo sapiens, UniProt P49961); assay: Inhibition of cellular CD39 ATPase activity in Ramos cells; type: cell-based
T1 construct: host or cells: Ramos human lymphoma cells
T1 sequence (P49961 1-510): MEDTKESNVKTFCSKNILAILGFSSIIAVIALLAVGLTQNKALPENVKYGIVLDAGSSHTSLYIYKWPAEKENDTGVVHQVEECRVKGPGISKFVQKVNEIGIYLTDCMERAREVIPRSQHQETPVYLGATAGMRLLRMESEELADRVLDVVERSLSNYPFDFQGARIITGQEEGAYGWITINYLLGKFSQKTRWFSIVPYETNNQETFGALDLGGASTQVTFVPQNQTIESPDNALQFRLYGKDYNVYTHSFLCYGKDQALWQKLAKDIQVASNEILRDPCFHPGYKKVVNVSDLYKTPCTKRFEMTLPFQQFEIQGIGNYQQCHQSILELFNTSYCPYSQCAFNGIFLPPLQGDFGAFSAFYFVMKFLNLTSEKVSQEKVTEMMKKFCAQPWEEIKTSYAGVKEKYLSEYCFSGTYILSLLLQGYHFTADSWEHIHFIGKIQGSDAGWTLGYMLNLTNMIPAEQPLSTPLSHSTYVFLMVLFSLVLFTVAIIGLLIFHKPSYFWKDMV
Description: The inhibition of the CD39 enzymatic activity in CD39-expressing cells by antibodies was evaluated using Cell Titer Glo™ (Promega, reference G7571) that allows assessment of ATP hydrolysis through use of a reagent that generates a luminescent signal proportional to the amount of ATP present. The assay was thus designed to permit assessment of the inhibition of ATP hydrolyzed by CD39 in the cell culture supernatant. Briefly, 5×10^4 Ramos human lymphoma cells, 5×10^3 human CD39-, cynomolgus CD39—and mouse CD39-expressing CHO cells, were incubated 1 hour at 37° C. with anti-CD39 antibodies from 30 μg/ml to 5×10^−4 μg/ml. Cells were then incubated with 20 μM ATP for 1 additional hour at 37° C. Plates were centrifuged for 2 min at 400 g and 50 μl cell supernatant are transferred in a luminescence microplate (white wells). 50 μl CellTiter-Glo® Reagent (CTG) was added to the supernatant and emitted light was quantified after a 5 min incubation in the dark using a Enspire™ luminometer. Anti-CD39 antibody efficacy was determined by comparing emitted light in presence of antibody with ATP alone (maximal light emission) and ATP together with cells (minimal light emission).

[2] = molecular target: T2, human Ramos lymphoma cells (Homo sapiens, UniProt P49961); assay: Antibody titration on Ramos cells by flow cytometry; type: binding
T2 construct: host or cells: Ramos human lymphoma cells
T2 sequence (P49961 1-510): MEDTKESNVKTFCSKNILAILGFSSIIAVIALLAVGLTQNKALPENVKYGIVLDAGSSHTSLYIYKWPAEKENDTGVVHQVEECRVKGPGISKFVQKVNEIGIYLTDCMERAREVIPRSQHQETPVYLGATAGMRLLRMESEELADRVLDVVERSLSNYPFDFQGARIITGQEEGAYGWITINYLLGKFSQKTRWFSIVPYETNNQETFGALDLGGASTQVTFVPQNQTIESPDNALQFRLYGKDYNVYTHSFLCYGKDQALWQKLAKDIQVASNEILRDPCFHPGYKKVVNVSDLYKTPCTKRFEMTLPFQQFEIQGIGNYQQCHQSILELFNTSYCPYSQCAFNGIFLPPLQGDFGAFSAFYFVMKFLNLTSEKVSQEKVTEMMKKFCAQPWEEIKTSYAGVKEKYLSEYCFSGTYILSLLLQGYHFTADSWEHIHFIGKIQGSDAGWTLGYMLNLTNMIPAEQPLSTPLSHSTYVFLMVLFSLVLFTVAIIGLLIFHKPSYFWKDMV
Description: Cells were incubated with various concentration of unlabeled anti-CD39 antibody from 30 μg/ml to 5×10^−4 μg/ml, for 30 minutes at 4° C. After washes, cells were incubated with Goat anti-mouse H+L labeled secondary antibody for 30 min at 4° C.

[3] = molecular target: T3, Human CD39-L4 (NTPDase5, ENTPD5) (Homo sapiens, UniProt O75356); assay: ELISA titration on CD39-L4; type: binding
T3 sequence (O75356 25-428): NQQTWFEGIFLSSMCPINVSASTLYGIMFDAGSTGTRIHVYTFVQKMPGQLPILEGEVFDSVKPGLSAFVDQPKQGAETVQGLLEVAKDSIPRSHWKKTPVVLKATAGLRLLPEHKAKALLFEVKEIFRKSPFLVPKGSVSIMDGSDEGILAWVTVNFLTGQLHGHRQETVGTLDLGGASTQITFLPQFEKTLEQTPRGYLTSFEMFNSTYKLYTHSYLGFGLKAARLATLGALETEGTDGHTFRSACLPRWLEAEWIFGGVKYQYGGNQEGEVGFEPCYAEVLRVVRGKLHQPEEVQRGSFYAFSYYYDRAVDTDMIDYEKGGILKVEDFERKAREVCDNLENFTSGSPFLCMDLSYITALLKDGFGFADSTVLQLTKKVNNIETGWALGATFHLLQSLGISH
Description: Wells were washed in TBS Tween 20, and further saturated 2H at RT in TBS Blocking buffer. Dose range concentration of primary antibody was incubated in TBS blocking buffer for 2h at RT. Wells were washed in TBS Tween 20. […] Optical density was measured on Enspire™ at OD=450.

allogenic CD4 T cells = assay: Mixed lymphocytes reaction (MLR) of ATP-activated MoDC with allogenic CD4 T cells; type: cell-based, human; conditions: MoDC activated in presence of ATP
Description: Briefly, human monocytes were purified from human healthy blood and differentiated into MoDC in presence of GM-CSF and IL-4 during 6 days. Then MoDC were activated in presence of ATP (Sigma, 0.25-1 mM) during 24 hours and DC activation were assessed by analyzing CD80, CD83 and HLA-DR expression by flow cytometry. […] LPS (Invivogen, 10 ng/ml) was used as positive control. To assess resulting effect of ATP-mediated DC activation on CD4 T cells activation, ATP-activated DC were washed and then incubated with allogenic CD4 T cells (ratio 1 MoDC/4 T cells) for a mixed lymphocytes reaction (MLR) during 5 days. T cells activation and proliferation were analyzed through CD25 expression and Cell Trace Violet dilution by flow cytometry (FIG. 8).

CD4 T cells = assay: T cell proliferation assay in presence of added ATP, CD4 T cells; type: cell-based, human
Description: (§1) Peripheral blood from healthy donors was obtained from EFS, and mononuclear cells were isolated on a Ficoll gradient. Lymphocytes were further enriched on a 52% Percoll gradient by collection of the cell pellets and stained with a Cell Trace dye (Thermofisher) following the TDS provided by the manufacturer. […] Inhibition of T cell proliferation was achieved by addition of ATP (200 μM). T cell proliferation and ability of Abs to block immune suppressive effect of AMP were assessed by flow cytometry by quantifying the dye dilution in the proliferating T cell subset.
(§2) Percentage of proliferating T cells vs. anti-CD73 Ab concentration is plotted in graphs using GraphPad Prism software.

CD8 T cells = assay: T cell proliferation assay in presence of added ATP, CD8 T cells; type: cell-based, human
Description: as §1, §2

[4] = concentrations of 0.1 μg/ml and 1 μg/ml, added ATP

blocking CD39 enzymatic activity in tumor (Ramos) cells [1]: highly potent
potency in Ramos cells compared to all other antibodies tested [1]: greater potency
maximum inhibition achieved, cellular CD39 ([1]; Ramos cells): 81.6%
binding to Ramos lymphoma cells [2]: bound; also recorded: binds
binding to CD39-L4 in ELISA [3]: not to any of the human isoforms
B1: I-394: anti-CD39 antibody, VH SEQ ID NO: 6, VL SEQ ID NO: 7; heavy/light chains SEQ ID NOS: 52 and 53 (antibody)
heavy: EVQLQQSGPELVKPGASVKMSCKASGYTFTDYNMHWVKQSHGRTLEWIGYIVPLNGGSTFNQKFKGRATLTVNTSSRTAYMELRSLTSEDSAAYYCARGGTRFAYWGQGTLVTVSAASTKGPSVFPLAPSSKSTSGGTAALGCLVKDYFPEPVTVSWNSGALTSGVHTFPAVLQSSGLYSLSSVVTVPSSSLGTQTYICNVNHKPSNTKVDKRVEPKSCDKTHTCPPCPAPEAEGAPSVFLFPPKPKDTLMISRTPEVTCVVVDVSHEDPEVKFNWYVDGVEVHNAKTKPREEQYNSTYRVVSVLTVLHQDWLNGKEYKCKVSNKALPSSIEKTISKAKGQPREPQVYTLPPSREEMTKNQVSLTCLVKGFYPSDIAVEWESNGQPENNYKTTPPVLDSDGSFFLYSKLTVDKSRWQQGNVFSCSVMHEALHNHYTQKSLSLSPGK
light: DIVLTQSPASLAVSLGQRATISCRASESVDNFGVSFMYWFQQKPGQPPNLLIYGASNQGSGVPARFRGSGSGTDFSLNIHPMEADDTAMYFCQQTKEVPYTFGGGTKLEIKRTVAAPSVFIFPPSDEQLKSGTASVVCLLNNFYPREAKVQWKVDNALQSGNSQESVTEQDSKDSTYSLSSTLTLSKADYEKHKVYACEVTHQGLSSPVTKSFNRGEC
modifications: Chimeric homo sapiens mus musculus
T cell proliferation and activation (CD25 expression, Cell Trace Violet dilution) in MLR (allogenic CD4 T cells): higher T cell proliferation and activation
potentiation of anti-CD73 antibodies in restoring CD4 T cell proliferation (CD4 T cells; added ATP 200 μM, anti-CD39 at 0.01, 0.1, 1 μg/ml): strongly potentiation
increase in potency of anti-CD73 antibodies (CD4 T cells; anti-CD39 antibody at 0.01 μg/ml): approximately 1 log
increase in potency of anti-CD73 antibodies (CD4 T cells; anti-CD39 antibody at 0.1 μg/ml): approximately 4 log
enhancement of CD4 T cell proliferation, alone without anti-CD73 (CD4 T cells; [4]): remarkable enhancement
potentiation of anti-CD73 antibodies in restoring CD8 T cell proliferation (CD8 T cells; added ATP 200 μM): strongly potentiation
enhancement of CD8 T cell proliferation, alone without anti-CD73 (CD8 T cells; [4]): remarkable enhancement
